Assays:
Assay in all cases: cell-based or functional assay
SAPK3(h) (human) = target: T1, SAPK3(h) (human) (UniProt P53778)
T1 sequence (looked up): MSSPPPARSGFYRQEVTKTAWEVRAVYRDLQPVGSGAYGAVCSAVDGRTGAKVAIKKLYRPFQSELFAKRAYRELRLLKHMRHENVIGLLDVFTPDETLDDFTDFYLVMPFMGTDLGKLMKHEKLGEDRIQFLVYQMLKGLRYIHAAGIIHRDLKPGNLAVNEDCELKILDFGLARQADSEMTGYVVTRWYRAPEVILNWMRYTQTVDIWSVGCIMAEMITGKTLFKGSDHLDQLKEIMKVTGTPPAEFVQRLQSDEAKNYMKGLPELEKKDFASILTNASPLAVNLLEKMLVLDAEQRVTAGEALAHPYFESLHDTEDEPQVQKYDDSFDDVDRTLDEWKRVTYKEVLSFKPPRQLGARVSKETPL

PDGFRα(D842V)(h) (human) = PDGFRα(D842V)(h) (human) (UniProt P16234)
EphA4(h) (human) = EphA4(h) (human) (UniProt P54764)
DYRK2(h) (human) = DYRK2(h) (human) (UniProt Q92630)
TAO2(h) (human) = target: T2, TAO2(h) (human) (UniProt Q9UL54)
T2 sequence (looked up): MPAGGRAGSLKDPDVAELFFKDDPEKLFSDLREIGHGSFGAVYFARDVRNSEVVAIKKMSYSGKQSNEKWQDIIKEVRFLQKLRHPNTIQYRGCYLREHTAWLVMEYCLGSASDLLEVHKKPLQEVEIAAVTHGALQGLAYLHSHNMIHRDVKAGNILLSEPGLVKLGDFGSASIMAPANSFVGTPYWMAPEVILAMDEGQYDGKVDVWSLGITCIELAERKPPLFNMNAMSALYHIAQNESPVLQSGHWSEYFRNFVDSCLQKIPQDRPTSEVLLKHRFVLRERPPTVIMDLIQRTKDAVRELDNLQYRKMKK

Haspin(h) (human) = target: T3, Haspin(h) (human) (UniProt Q8TF76)
T3 sequence (looked up): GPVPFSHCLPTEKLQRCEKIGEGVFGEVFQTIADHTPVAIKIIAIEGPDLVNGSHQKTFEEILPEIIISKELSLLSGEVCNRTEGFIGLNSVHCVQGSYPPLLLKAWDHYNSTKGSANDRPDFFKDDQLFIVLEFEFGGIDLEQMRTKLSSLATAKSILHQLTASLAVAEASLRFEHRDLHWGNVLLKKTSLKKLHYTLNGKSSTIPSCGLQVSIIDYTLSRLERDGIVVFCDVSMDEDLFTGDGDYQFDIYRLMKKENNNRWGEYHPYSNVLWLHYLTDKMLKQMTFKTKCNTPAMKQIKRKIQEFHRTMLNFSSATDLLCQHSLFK

Abl(h) (human) = Abl(h) (human) (UniProt P00519)
mTOR/FKBP12(h) (human) = mTOR/FKBP12(h) (human) (UniProt P42345)
MLCK(h) (human) = target: MLCK(h) (human)
PKGδ(h) (human) = target: PKGδ(h) (human)
PKCβII(h) (human) = PKCβII(h) (human) (UniProt P05771)
Fer(h) (human) = Fer(h) (human) (UniProt P16591)
DDR2(h) (human) = target: T4, DDR2(h) (human) (UniProt Q16832)
T4 sequence (looked up): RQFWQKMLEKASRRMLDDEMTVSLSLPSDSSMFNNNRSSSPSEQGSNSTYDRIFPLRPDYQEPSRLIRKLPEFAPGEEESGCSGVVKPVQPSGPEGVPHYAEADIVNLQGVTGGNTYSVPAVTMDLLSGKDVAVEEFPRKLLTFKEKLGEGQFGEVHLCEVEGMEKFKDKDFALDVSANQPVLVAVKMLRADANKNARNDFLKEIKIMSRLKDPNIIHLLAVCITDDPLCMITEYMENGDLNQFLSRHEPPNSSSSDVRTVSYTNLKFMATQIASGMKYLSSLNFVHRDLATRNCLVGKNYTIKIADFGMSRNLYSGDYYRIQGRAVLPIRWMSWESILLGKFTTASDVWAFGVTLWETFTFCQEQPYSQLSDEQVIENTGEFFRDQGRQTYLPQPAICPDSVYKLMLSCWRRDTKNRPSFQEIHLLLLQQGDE

CDK5/p25(h) (human) = CDK5/p25(h) (human) (UniProt Q00535)
PDGFRβ(h) (human) = PDGFRβ(h) (human) (UniProt P09619)
ACK1(h) (human) = ACK1(h) (human) (UniProt Q07912)
EphA1(h) (human) = target: T5, EphA1(h) (human) (UniProt P21709)
T5 sequence (looked up): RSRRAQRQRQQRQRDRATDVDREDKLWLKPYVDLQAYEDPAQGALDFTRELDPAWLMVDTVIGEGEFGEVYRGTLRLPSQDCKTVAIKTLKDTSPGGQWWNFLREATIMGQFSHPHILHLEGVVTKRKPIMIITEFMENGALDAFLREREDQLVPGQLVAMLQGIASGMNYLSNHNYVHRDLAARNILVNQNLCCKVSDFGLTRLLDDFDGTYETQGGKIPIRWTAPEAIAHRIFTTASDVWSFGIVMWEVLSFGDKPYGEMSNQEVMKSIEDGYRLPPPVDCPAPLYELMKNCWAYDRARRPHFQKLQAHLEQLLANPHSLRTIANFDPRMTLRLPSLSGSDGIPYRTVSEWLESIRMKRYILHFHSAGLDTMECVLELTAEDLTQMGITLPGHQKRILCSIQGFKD

Lyn(h) (human) = Lyn(h) (human) (UniProt P07948)
CSK(h) (human) = CSK(h) (human) (UniProt P41240)
EphB1(h) (human) = EphB1(h) (human) (UniProt P54762)
6SK3β(h) (human) = 6SK3β(h) (human) (UniProt P49841)
PASK(h) (human) = PASK(h) (human) (UniProt Q96RG2)
Met(Y1248C)(h) (human) = Met(Y1248C)(h) (human) (UniProt P08581)
DAPK1(h) (human) = DAPK1(h) (human) (UniProt P53355)

Chain of Lyn(h) (human) (P07948 whole entry): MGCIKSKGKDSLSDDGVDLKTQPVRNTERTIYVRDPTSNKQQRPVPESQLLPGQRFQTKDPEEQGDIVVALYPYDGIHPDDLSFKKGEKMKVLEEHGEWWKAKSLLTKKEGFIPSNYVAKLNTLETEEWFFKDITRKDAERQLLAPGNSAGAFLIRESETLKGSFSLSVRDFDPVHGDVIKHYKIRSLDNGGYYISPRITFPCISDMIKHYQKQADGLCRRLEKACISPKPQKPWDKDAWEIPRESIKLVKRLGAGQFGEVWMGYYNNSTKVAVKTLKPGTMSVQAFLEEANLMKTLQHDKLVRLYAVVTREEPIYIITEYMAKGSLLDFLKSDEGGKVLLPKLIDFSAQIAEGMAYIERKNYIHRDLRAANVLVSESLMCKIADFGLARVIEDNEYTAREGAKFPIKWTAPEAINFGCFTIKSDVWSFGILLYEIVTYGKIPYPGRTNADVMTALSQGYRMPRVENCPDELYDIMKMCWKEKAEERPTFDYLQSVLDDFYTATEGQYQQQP
Chain of EphA4(h) (human) (P54764 570-986 limits assumed): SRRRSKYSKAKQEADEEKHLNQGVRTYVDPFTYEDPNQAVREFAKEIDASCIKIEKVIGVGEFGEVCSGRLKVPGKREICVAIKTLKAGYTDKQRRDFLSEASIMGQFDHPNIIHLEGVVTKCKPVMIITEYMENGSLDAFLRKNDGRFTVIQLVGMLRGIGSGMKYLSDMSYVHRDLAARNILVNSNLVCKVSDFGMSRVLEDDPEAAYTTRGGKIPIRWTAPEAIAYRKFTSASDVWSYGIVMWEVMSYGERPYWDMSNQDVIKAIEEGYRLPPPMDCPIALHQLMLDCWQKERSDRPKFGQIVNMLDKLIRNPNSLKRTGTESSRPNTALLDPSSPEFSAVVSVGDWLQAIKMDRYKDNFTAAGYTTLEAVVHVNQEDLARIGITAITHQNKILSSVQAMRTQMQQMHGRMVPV
Chain of PDGFRβ(h) (human) (P09619 557-1106 limits assumed): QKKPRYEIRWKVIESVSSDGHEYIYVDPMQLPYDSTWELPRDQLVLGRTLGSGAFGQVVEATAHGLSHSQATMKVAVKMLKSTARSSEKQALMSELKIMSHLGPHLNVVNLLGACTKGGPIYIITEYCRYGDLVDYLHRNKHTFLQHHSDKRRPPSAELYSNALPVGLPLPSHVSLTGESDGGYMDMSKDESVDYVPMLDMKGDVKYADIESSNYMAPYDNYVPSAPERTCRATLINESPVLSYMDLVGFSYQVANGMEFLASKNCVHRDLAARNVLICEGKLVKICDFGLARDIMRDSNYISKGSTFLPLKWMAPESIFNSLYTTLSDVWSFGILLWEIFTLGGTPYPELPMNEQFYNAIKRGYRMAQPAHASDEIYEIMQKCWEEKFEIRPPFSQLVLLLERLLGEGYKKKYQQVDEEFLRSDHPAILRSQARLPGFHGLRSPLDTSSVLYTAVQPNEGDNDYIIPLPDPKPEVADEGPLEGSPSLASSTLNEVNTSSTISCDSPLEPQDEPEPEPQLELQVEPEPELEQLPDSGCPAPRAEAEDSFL
Chain of mTOR/FKBP12(h) (human) (P42345 1362-2549 limits assumed, chain 1 of 2): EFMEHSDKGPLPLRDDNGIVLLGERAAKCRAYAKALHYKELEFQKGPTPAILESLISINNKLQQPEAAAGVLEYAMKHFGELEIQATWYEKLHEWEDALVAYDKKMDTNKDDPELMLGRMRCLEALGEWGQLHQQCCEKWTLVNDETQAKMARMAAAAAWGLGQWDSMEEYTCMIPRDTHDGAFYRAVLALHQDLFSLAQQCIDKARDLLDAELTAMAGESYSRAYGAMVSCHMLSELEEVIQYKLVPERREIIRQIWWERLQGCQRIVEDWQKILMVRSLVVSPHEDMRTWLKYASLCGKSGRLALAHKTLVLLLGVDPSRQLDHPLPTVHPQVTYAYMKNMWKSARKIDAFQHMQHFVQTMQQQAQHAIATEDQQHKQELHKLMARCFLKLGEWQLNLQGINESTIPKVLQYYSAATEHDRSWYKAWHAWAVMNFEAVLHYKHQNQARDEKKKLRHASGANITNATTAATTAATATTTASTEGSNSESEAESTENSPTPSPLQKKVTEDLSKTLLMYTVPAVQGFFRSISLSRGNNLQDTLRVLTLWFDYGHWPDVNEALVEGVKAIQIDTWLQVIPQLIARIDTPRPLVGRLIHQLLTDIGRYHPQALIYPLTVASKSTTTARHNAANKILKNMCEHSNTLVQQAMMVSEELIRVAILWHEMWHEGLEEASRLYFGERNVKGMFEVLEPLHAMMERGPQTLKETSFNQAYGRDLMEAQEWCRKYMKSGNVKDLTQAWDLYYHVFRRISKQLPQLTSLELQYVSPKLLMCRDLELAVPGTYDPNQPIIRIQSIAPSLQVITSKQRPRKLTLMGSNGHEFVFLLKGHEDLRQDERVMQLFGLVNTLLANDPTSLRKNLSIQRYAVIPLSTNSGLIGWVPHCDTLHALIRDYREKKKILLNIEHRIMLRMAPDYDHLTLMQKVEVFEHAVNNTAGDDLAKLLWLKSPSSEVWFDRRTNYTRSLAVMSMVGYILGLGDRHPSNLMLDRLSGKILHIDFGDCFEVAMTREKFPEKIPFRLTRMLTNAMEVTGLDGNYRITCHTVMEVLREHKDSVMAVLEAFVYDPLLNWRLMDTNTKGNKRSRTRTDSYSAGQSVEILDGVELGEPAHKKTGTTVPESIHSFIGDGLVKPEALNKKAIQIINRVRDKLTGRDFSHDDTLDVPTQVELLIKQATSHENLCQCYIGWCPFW
Chain of mTOR/FKBP12(h) (human) (P62942 whole entry, chain 2 of 2, further chain): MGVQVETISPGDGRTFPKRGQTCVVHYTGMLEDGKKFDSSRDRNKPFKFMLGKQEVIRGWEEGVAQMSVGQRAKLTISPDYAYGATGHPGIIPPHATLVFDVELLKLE
Chain of DYRK2(h) (human) (Q92630 whole entry): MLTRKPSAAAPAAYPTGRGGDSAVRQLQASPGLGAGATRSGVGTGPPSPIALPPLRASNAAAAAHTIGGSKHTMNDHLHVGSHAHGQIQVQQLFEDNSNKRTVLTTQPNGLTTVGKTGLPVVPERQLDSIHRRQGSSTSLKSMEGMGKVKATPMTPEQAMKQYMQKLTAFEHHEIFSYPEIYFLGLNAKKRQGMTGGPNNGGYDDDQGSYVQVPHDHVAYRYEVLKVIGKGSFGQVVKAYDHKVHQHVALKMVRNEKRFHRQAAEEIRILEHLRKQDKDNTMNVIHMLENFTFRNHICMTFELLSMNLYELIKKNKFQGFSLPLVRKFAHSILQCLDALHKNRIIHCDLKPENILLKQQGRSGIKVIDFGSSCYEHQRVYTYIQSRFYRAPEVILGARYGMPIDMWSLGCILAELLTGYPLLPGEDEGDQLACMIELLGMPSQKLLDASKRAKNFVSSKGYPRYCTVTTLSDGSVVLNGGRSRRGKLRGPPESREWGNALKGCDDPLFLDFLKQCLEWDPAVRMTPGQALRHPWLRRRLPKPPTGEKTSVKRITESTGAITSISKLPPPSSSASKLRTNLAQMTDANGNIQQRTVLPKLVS
Chain of 6SK3β(h) (human) (P49841 whole entry): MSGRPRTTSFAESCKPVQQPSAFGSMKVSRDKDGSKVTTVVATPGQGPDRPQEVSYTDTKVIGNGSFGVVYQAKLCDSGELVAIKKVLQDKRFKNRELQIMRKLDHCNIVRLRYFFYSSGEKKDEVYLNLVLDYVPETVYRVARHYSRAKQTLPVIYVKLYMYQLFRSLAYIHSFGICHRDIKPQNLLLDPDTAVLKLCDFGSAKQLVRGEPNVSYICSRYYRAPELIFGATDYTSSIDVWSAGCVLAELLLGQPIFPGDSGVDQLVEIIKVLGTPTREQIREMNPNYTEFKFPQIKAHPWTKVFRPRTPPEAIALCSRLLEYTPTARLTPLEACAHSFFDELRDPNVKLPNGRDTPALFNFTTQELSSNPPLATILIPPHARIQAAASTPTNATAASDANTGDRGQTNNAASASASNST
Chain of Abl(h) (human) (P00519 27-1130 limits assumed): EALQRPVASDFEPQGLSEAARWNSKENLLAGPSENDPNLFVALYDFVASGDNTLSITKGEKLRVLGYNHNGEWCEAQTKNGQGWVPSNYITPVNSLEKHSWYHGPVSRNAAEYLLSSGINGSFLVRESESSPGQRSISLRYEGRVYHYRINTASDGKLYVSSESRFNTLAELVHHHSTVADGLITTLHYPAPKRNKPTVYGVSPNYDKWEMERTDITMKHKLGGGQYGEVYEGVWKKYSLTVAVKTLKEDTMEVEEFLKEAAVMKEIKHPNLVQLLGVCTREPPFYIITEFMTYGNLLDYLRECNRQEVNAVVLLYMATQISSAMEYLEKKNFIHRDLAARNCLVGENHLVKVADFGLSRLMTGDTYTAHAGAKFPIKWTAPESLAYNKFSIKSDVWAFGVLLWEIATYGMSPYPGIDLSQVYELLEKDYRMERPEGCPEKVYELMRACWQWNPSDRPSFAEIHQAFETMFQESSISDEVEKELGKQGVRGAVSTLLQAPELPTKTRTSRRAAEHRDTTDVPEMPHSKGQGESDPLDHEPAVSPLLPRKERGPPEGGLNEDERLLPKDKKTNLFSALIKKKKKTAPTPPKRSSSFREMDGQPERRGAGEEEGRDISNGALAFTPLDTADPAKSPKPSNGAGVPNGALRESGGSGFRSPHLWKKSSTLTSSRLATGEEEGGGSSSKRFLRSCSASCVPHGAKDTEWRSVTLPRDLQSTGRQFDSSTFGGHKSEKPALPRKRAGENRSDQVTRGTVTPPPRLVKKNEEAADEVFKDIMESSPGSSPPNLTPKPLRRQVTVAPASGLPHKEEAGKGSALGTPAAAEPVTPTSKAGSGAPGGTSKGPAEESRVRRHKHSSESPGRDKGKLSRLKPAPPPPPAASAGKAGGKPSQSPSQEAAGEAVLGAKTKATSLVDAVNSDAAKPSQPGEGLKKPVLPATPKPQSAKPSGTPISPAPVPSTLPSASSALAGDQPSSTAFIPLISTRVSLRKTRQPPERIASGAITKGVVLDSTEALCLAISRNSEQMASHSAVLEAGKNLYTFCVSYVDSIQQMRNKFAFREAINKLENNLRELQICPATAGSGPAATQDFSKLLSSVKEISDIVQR

% activity, 100 µM (SAPK3(h) (human)): 24% | % activity, 100 µM (PDGFRα(D842V)(h) (human)): 170% | % activity, 100 µM (EphA4(h) (human)): 48% | % activity, 100 µM (DYRK2(h) (human)): 127% | % activity, 100 µM (TAO2(h) (human)): 15% | % activity, 100 µM (Haspin(h) (human)): 25% | % activity, 100 µM (Abl(h) (human)): 16% | % activity, 100 µM (mTOR/FKBP12(h) (human)): 140% | % activity, 100 µM (MLCK(h) (human)): 0% | % activity, 100 µM (PKGδ(h) (human)): 61% | % activity, 100 µM (PKCβII(h) (human)): 3% | % activity, 100 µM (Fer(h) (human)): 196% | % activity, 100 µM (DDR2(h) (human)): 79% | % activity, 100 µM (CDK5/p25(h) (human)): 66% | % activity, 100 µM (PDGFRβ(h) (human)): 40% | % activity, 100 µM (ACK1(h) (human)): 64% | % activity, 100 µM (EphA1(h) (human)): 40% | % activity, 100 µM (Lyn(h) (human)): 31% | % activity, 100 µM (CSK(h) (human)): 2% | % activity, 100 µM (EphB1(h) (human)): 37% | % activity, 100 µM (6SK3β(h) (human)): 238% | % activity, 100 µM (PASK(h) (human)): 9% | % activity, 100 µM (Met(Y1248C)(h) (human)): 73% | % activity, 100 µM (DAPK1(h) (human)): 0%
Substance: MMI-0500 (peptide)

From US20140072613A1, “Compositions and Methods for Treating Cutaneous Scarring” (priority 2012, published 2014)
